Positions count from the first letter of the chain named. Numbers in names are those of the source.

Holding throughout (type): biochemical, Prevotella bryantii
Substrate in data set [1]: O=[N+]([O-])c1ccc(O[C@@H]2O[C@H](CO)[C@@H](O)[C@H](O)[C@H]2O)cc1
The data set is described as follows: Steady state kinetics of pNP substrate hydrolysis, Pb911 WT. The conditions noted are these: other: Pb911 WT, pNP assay per Example 2 (sodium citrate, pH 5.5, 37° C.). The procedure: (§1) Enzyme-catalyzed hydrolysis of para-nitrophenyl (pNP)-linked monosaccharide substrates was assayed using a thermostated Synergy II multi-mode microplate reader from BioTek Instruments Inc. (Winooski, Vt.). A library of pNP substrates were screened for activity including: pNP-α-L-arabinopyranoside, pNP-α-L-arabinofuranoside, pNP-β-D-fucopyranoside, pNP-α-L-fucopyranoside, pNP-α-D-galactopyranoside, pNP-β-D-galactopyranoside, pNP-α-D-glucopyranoside, pNP-β-D-glucopyranoside, pNP-β-D-maltopyranoside, pNP-α-D-maltopyranoside, pNP-α-D-mannopyranoside, pNP-β-D-mannopyranoside, pNP-α-L-rhamnopyranoside, pNP-β-D-xylopyranoside, pNP-β-D-cellobioside. The substrates (1 mM) in citrate buffer (100 μL; 50 mM sodium citrate, 150 mM NaCl, pH 5.5) were incubated at 37° C. in the presence or absence of Pb886 (0.2 μM) for 30 min, and the level of pNP release was determined by continuously monitoring the absorbance at 400 nm. The pathlength correction feature of the instrument was employed to convert the absorbance values recorded to correspond to a 1 cm pathlength. The extinction coefficient for pNP at pH 5.5 and a wavelength of 400 nm was measured as 0.673 mM^−1cm^−1.
(§2) FIG. 4c illustrates the kinetics of pNP substrate hydrolysis. The activity of Pb886 was verified with para-nitrophenyl derivatives of xylose and arabinose as indicated in the x-axes. These substrates are artificial substrates for the enzyme. Kinetic studies of Pb886 were performed using a thermostated Synergy II multi-mode microplate reader from BioTek Instruments Inc. (Winooski, Vt.). pNP-β-D-Xylopyranoside (0-46.25 mM) or pNP-α-L-arabinofuranoside (0-25 mM) were incubated in a citrate reaction buffer (100 μL; 50 mM sodium citrate, 150 mM NaCl, pH 5.5) at 37° C. in a 96-well flat bottom microtiter plate, and reactions were initiated by the addition of Pb886 (0.2 μM). Hydrolysis of pNP-β-D-xylopyranoside and pNP-α-L-arabinofuranoside were continuously monitored by recording the UV signal at 400 nm. Initial rate data were then plotted against the substrate concentration, and kinetic values were estimated by applying a nonlinear curve fit using GraphPad Prism v5.02 from GraphPad Software (San Diego, Calif.). The extinction coefficient for para-nitrophenol at pH 5.5 and a wavelength of 400 nm was measured as 0.673 mM^−1cm^−1.
(§3) Pb911 protein was expressed and purified according to the methods described in Example 1. […] The activity of Pb911 on pNP substrates was measured according to the methods described in Example 2.

Substrate in data set [2]: O=[N+]([O-])c1ccc(O[C@@H]2OC[C@@H](O)[C@H](O)[C@H]2O)cc1
Described as above. The conditions noted are these: other: Pb911 WT, pNP assay per Example 2 (sodium citrate, pH 5.5, 37° C.). The procedure:
as §1, §2, §3

Substrate in data set [3]: O=[N+]([O-])c1ccc(O[C@@H]2O[C@H](CO)[C@@H](O)[C@H](O)[C@H]2O)cc1
Put plainly: Steady state kinetics of pNP substrate hydrolysis, Pb911 E115A. The conditions noted are these: other: Pb911 E115A, pNP assay per Example 2 (sodium citrate, pH 5.5, 37° C.). On the procedure: as §1, §2, §3

Substrate in data set [4]: O=[N+]([O-])c1ccc(O[C@@H]2OC[C@@H](O)[C@H](O)[C@H]2O)cc1
Described as above. The conditions noted are these: other: Pb911 E115A, pNP assay per Example 2 (sodium citrate, pH 5.5, 37° C.). The procedure: as §1, §2, §3

Substrate in data set [5]: O=[N+]([O-])c1ccc(O[C@@H]2O[C@H](CO)[C@@H](O)[C@H](O)[C@H]2O)cc1
The data set is described as follows: Steady state kinetics of pNP substrate hydrolysis, Pb911 E115D. The conditions noted are these: other: Pb911 E115D, pNP assay per Example 2 (sodium citrate, pH 5.5, 37° C.). On the procedure: as §1, §2, §3

Substrate in data set [6]: O=[N+]([O-])c1ccc(O[C@@H]2OC[C@@H](O)[C@H](O)[C@H]2O)cc1
The data set is described as above. As to conditions: other: Pb911 E115D, pNP assay per Example 2 (sodium citrate, pH 5.5, 37° C.). The procedure: as §1, §2, §3

B1: Prevotella bryantii β-xylosidase/β-glucosidase Pb911 (alternatively named Pb2369), wild type, SEQ ID NO: 6 (Segatella baroniae B14) (protein)
chain: QTILINQQVDALYDRMSQEERINQLRSGYMDDLFDEQGNLDTVKCKELIPFGIGHFSQYASQKPLDANILRDRVAAVQDWLIHHTPNGIPALFHEEVLSGVNTKDATIYPQQIGQACSFNPELAERKTLQTGIDMRKMGGVLSLSPMVDVCRNPSFNRLEESYGEDGYLSAVMGTAFVKGLQQGDLTKGVGACSKHYLGYGGGGDAKEKEMMEEILLPHETMIRLAGSKALMPGYHAVHGTNCVANHEILTDILRGYLGFDGMVVSDYTAIDQIPGLDTPLQKATAAINAGNDVDFPHGANYKFLQEGLDKGMVKSEAFERAVKDVLRHKYRQGLFDKNAYLYSKDPIQLDSKEERQTAYDIATQSVVLLENKGILPLRGKQNIFVTGPNANTMWAMCGDYSFPAMTYFWKKVTEDLDHPHIVKLLEGMKDRKPAGINISYSRGCDWTDTIETKYAVSGDERAWEYEVLHRKVDSGEKADETEALAMAKEADVIIAAVGENVMLCGENRDRQGLCLPGHQEQYVERLLATGKPVVLVVFGGRAQVISNIANRCAAVIQAWYPGEEGGHAVADILYGNVSPSAKLSVSYPNVELNEPICYNYSAKQDSRVAWPFGYGLSYTTFDYSNLEVPTEVKTSDESLHIAFEVANTGKMDADEIAQVYLSPTQENQNIRPIQLQGFARISLKAGERKKVKVKLYTEQFGYYSNNGKRQWNIAPGTFTVKIGASSQDIKLQKNITVKGDIVVKPLRDFYFSEVIK
In the case of B1, in data set [1], the Km is on record as 22 ± 1 mM, the kcat is 19 ± 0.6 s⁻¹ and the kcat/Km was found to be 0.86 ± 0.05 s⁻¹ mM⁻¹. In data set [2], the Km came to 8.4 ± 1 mM, the kcat stood at 250 ± 10 s⁻¹ and the kcat/Km was found to be 30 ± 4 s⁻¹ mM⁻¹.

B2: Prevotella bryantii β-xylosidase/β-glucosidase Pb911 (alternatively named Pb2369, wild type SEQ ID NO: 6) variant E115A (Segatella baroniae B14; E115A) (protein)
chain: B1 chain with E96A
Consider B2, for which, in data set [3], the Km stood at 39 ± 4 mM, the kcat was determined as 0.087 ± 0.005 s⁻¹ and the kcat/Km was 0.0022 ± 0.0003 s⁻¹ mM⁻¹. Further, in data set [4], the Km was determined as 28 ± 3 mM, the kcat amounted to 0.35 ± 0.02 s⁻¹ and the kcat/Km came out at 0.013 ± 0.002 s⁻¹ mM⁻¹.

B3: Prevotella bryantii β-xylosidase/β-glucosidase Pb911 (alternatively named Pb2369, wild type SEQ ID NO: 6) variant E115D (Segatella baroniae B14; E115D) (protein)
chain: B1 chain with E96D
For B3, in data set [5], the Km worked out at 17 ± 1 mM, the kcat is 16 ± 0.4 s⁻¹ and the kcat/Km was found to be 0.94 ± 0.06 s⁻¹ mM⁻¹. Further, in data set [6], the Michaelis constant (Km) was found to be 39 ± 4 mM, the kcat amounted to 87 ± 5 s⁻¹ and the kcat/Km is 2.2 ± 0.2 s⁻¹ mM⁻¹.

What is called Km is the concentration of substrate that gives half-maximal velocity. As a reminder, the kcat is the number of substrate molecules converted per active site and unit of time at saturation. In general, kcat/Km refers to the turnover number divided by the Michaelis constant.

For the origin of these results see US9012186B2, “Hemicellulose-degrading enzymes” (The Board of Trustees of the University of Illinois, priority 2009, dated 2015).
